From patent publication US20050176069A1 (PHARMACIA AND UPJOHN, published 2005) come the findings set out here.

One test addresses T1, CEGPCR3 (C. elegans, UniProt P90745 1-376).
T1 sequence: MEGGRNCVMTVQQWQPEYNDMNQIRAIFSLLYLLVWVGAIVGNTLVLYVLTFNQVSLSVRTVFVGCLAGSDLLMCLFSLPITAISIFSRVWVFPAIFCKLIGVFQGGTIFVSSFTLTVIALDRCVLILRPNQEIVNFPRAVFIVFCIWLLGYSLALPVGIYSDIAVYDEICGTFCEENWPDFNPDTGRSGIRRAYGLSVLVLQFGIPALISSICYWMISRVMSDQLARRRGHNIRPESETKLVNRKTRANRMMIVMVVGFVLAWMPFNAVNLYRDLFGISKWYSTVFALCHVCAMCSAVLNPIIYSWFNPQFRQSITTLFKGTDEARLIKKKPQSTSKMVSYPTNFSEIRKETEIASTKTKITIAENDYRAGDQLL
The test is described as follows: cell-based or functional assay.

In the next test the target is T2, CEGPCR4 (C. elegans).
T2 construct: Expressed in CHO cells
T2 chain: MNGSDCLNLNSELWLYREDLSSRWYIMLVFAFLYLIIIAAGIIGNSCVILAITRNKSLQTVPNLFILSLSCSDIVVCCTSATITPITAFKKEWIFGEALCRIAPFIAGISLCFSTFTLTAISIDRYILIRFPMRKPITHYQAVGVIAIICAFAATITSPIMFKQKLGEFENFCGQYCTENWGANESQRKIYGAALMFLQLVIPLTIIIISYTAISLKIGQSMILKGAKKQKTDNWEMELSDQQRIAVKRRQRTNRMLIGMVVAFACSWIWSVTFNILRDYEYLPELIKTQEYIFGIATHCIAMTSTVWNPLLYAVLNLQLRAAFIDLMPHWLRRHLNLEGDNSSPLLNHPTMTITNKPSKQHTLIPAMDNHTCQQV
Nature of the test: competition binding assay, CEGPCR4/CHO membranes, vs [125I-Y]DVPGVLRF-NH2.

A further test addresses T3, CEGPCR12h (C. elegans).
T3 chain: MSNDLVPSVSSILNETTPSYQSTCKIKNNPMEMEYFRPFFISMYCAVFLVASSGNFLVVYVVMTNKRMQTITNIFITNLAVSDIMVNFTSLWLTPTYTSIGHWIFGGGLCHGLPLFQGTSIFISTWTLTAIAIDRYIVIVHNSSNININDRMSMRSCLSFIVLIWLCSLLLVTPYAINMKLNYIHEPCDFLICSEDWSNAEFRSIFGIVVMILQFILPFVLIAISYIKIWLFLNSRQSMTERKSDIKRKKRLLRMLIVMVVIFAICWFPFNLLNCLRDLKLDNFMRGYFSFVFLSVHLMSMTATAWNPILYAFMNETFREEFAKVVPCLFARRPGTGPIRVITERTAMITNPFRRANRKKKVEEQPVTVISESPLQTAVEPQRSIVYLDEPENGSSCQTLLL
Nature of the test: cell-based or functional assay.

The target of another test is T4, CEGPCR4 (C. elegans).
T4 chain: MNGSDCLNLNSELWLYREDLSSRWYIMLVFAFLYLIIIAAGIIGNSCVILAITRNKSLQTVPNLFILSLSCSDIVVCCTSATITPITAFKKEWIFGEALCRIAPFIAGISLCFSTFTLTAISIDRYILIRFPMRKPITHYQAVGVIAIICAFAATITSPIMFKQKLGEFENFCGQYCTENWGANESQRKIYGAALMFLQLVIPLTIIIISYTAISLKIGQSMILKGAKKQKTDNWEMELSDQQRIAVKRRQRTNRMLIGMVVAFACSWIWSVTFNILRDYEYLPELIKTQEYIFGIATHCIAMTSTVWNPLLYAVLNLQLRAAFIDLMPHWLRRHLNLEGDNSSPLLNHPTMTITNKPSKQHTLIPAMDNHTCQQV
The test is described as follows: competition binding assay, CEGPCR4/CHO membranes, vs [125I-Y]DVPGVLRF-NH2.

The target of another test is T5, CEGPCR16 (C. elegans).
T5 chain: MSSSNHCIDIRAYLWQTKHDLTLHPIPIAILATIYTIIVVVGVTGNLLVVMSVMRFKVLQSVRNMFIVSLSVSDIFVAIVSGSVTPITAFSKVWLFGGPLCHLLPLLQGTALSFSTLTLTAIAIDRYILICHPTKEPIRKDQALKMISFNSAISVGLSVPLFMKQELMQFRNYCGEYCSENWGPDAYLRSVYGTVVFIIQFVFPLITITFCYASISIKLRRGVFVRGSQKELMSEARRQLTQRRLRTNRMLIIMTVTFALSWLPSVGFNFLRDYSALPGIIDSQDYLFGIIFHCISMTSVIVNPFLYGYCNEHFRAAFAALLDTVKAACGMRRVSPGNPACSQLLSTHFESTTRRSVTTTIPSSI
Nature of the test: cell-based or functional assay.

Test [1] has as its target T6, CEGPCR7 (C. elegans), Q18534.
T6 chain: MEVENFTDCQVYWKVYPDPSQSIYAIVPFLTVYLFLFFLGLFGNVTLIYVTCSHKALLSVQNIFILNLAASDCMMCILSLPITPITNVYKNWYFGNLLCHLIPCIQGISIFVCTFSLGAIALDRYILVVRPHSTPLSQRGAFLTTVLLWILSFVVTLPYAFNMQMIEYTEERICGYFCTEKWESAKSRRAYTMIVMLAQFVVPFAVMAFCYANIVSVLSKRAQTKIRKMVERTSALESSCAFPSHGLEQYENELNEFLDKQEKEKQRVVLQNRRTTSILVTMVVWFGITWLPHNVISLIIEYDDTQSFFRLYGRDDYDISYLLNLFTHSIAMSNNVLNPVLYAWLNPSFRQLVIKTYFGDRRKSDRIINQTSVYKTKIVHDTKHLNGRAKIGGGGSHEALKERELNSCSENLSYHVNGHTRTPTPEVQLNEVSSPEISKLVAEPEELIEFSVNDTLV
Nature of the test: cell-based or functional assay.

Like-named read-outs stand apart in the source and are kept apart here. Where no end group is shown, it is not given here.

B1: GNSFLRF-NH2 (peptide)
peptide: GNSFLRF-NH2
notes: also called GNSFLRFamide
As to B1, the “EC50, GTPγS assay” value in the test with CEGPCR3 amounted to 7900 nM. Moreover, in the test with CEGPCR4, the IC50 is 60000 to 900000 nM.

B2: …-NH2 (SchistoFLRFa) (peptide)
peptide: PDVDHVFLRF-NH2
In the case of B2, the EC50, [35S]GTPγS assay with CEGPCR12h (C. elegans) amounted to 330 nM. The same molecule yielded an IC50 in the test with CEGPCR4 (C. elegans) of 60000 to 900000 nM.

B3: GPSGPLRF-NH2 (peptide)
peptide: GPSGPLRF-NH2
In the case of B3, the “EC50, GTPγS assay” value with CEGPCR3 worked out at 422 nM.

B4: SVPGVLRF-NH2 (peptide)
peptide: SVPGVLRF-NH2
As to B4, the “EC50, [35S]GTPγS assay” value with CEGPCR16 is 64 nM. Also, in the test with CEGPCR4, the IC50 lay within 0.5 to 10 nM.

B5: …-NH2 (AF9) (peptide)
peptide: GLGPRPLRF-NH2
B5: in test [1], the AF9-induced [35S]GTPγS binding, cells kept at 37° C. (third of three experiments; no stimulation in the other two) worked out at 1.4 fold; the AF9-induced [35S]GTPγS binding, cooling (28° C.) protocol was 2.6 fold; the EC50, GTPγS assay is 207 nM.

B6: GGPQGPLRF-NH2 (peptide)
peptide: GGPQGPLRF-NH2
Take B6: the “EC50, GTPγS assay” value in the test with CEGPCR3 was found to be 152 nM. The molecule also displayed an IC50 in the test with CEGPCR4 of 50000 to 500000 nM.
